Reference: patent US20170298146A1 (MODIQUEST B V, published 2017)
Non-standard residues stand in square brackets, D forms with d. No end group written: not given here. Cit = NC(=O)NCCC[C@H](N)C(=O)O

How the values were obtained:
[1] = target: T1, Histone 2A citrulline-containing peptide 10 (human, also: biotin label); assay: peptide ELISA, 0.016 ug/well
T1 peptide: TRIIP[Cit]HLQLAI
Method: (§1) Biotin and citrulline-containing peptides derived from histone 2A were immobilized on NEUTRAVIDIN®-coated 96-well ELISA plates (0.3 μg/well). CFC-1 and CFC-0 were coated at the same concentration and served as positive and negative controls respectively for specific anti-citrulline reactivity and as coating controls. Non-coated wells were used to test for aspecific binding of the antibodies. […] Detection of bound anti-citrulline antibodies was performed by incubating the wells with rabbit-anti-human-HRP (1:2000) for one hour at RT followed by incubation with TMB substrate. The resulting OD (y-axis) is a measure for antibody binding.
(§2) Ninety-six-well ELISA plates were coated with NEUTRAVIDIN® (0.1 μg/well) by overnight incubation at 4° C. Wells were washed five times with PBS-TWEEN®-20 (PBS-T) and blocked by a one-hour incubation with PBS-T+1% Bovine serum albumin (BSA) at room temperature (RT). After five more washes with PBS-T, wells were incubated for one hour at RT with histone-derived citrulline and biotin-containing peptides (0.3 μg/well). […] Wells were washed five times with PBS-T and incubated with rabbit-anti-human-HRP (1:2000) for one hour at RT followed by five washes with PBS-T and three wash steps with PBS. Wells were incubated for five minutes with TMB substrate before stopping the reaction with 2 M H₂SO₄. Optical density was measured by 450 nm and is a measure for the affinity of the antibodies used.

[2] = target: T2, Histone 2A citrulline-containing peptide 1 (human, also: biotin label); assay: peptide ELISA, 0.016 ug/well
T2 construct: also called AAASGXGKQGGK
T2 peptide: AAASG[Cit]GKQGGK
Method: as §1, §2

[3] = target: T3, Histone 2A citrulline-containing peptide 5 (human, also: biotin label); assay: peptide ELISA, 0.016 ug/well
T3 peptide: VGRVH[Cit]LLRKGN
Method: as §1, §2

[4] = target: T4, Histone 2A citrulline-containing peptide 7 (human, also: biotin label); assay: peptide ELISA, 0.016 ug/well
T4 peptide: GNYSE[Cit]VGAGAP
Method: as §1, §2

[5] = target: T5, Histone 2A citrulline-containing peptide 9 (human, also: biotin label); assay: peptide ELISA, 0.016 ug/well
T5 peptide: DNKKT[Cit]IIPRHL
Method: as §1, §2

[6] = target: T6, Histone 2A citrulline-containing peptide 11 (human, also: biotin label); assay: peptide ELISA, 0.016 ug/well
T6 peptide: LQLAI[Cit]NDEELN
Method: as §1, §2

[7] = target: T7, Histone 2A citrulline-containing peptide 2 (human, also: biotin label); assay: peptide ELISA, 0.016 ug/well
T7 peptide: AKAKS[Cit]SSRAGL
Method: as §1, §2

[8] = target: T8, Histone 2A citrulline-containing peptide 6 (human, also: biotin label); assay: peptide ELISA, 0.016 ug/well
T8 peptide: VHRLL[Cit]KGNYSE
Method: as §1, §2

[9] = target: T9, Histone 2A citrulline-containing peptide 4 (human, also: biotin label); assay: peptide ELISA, 0.016 ug/well
T9 peptide: QFPVG[Cit]VHRLLR
Method: as §1, §2

[10] = target: T10, huPAD4 deiminated human recombinant histone H2B (human); assay: ELISA, 2 ug/well
T10 construct: also called H2B/p4
Method: (§3) CFC-1 and CFC-0 were coated at the same concentration and served as positive and negative controls, respectively, for specific anti-citrulline reactivity and as coating controls. Non-coated wells were used to test for aspecific binding of the antibodies. […] Detection of bound anti-citrulline antibodies was performed by incubating the wells with rabbit-anti-human-HRP (1:2000) for one hour at RT followed by incubation with TMB substrate. The resulting OD (y-axis) is a measure for antibody binding. H1=recombinant histone 1; H1/p2=huPAD2 recombinant histone 1; H1/p4=huPAD4 recombinant histone 1 and so forth (x-axis).

[11] = target: human recombinant histone H4 (human, UniProt P62805 2-103); assay: ELISA, 2 ug/well
Method: as §3

[12] = target: T11, huPAD4 deiminated human recombinant histone H3 (human); assay: ELISA, 2 ug/well
T11 construct: also called H3/p4
Method: as §3

[13] = target: T12, human recombinant histone H2B (human); assay: ELISA, 2 ug/well
T12 construct: Non-deiminated
Method: as §3

[14] = target: T13, huPAD2 deiminated human recombinant histone H3 (human); assay: ELISA, 2 ug/well
T13 construct: also called H3/p2
Method: as §3

[15] = target: T14, huPAD2 deiminated human recombinant histone H2B (human); assay: ELISA, 2 ug/well
T14 construct: also called H2B/p2
Method: as §3

[16] = target: T15, huPAD4 deiminated human recombinant histone H2A (human); assay: ELISA, 2 ug/well
T15 construct: also called H2A/p4; huPAD4 deiminated histone 2A
Method: as §3

CFC-1 = target: T16, CFC-1; assay: ELISA, 2 ug/well
T16 construct: Positive control for anti-citrulline reactivity; also called cfc1 XG
Method: as §3

[17] = target: T17, human recombinant histone H2A (human); assay: ELISA, 2 ug/well
T17 construct: Non-deiminated
Method: as §3

[18] = target: T18, huPAD2 deiminated human recombinant histone H2A (human); assay: ELISA, 2 ug/well
T18 construct: also called H2A/p2
Method: as §3

msFibα XH = target: T19, msFibα XH (mouse, X at position 15 is citrulline; biotin label); assay: peptide ELISA, 0.08 ug/well
T19 peptide: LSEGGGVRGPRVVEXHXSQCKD
Method: as §1, with “fibrinogen and vimentin” for “histone 2A”
(§4) Biotin-labeled and citrulline-containing fibrinogen and vimentin peptides (Table 5) were also tested for reactivity with the therapeutic antibodies. Peptides were coated on 96-well NEUTRAVIDIN®-ELISA plates.

huFibα XH = target: T20, huFibα XH (human, X at position 15 is citrulline; biotin label); assay: peptide ELISA, 0.08 ug/well
T20 peptide: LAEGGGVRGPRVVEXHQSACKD
Method: as §1, with “fibrinogen and vimentin” for “histone 2A”
as §4

msFibβ XG = target: T21, msFibβ XG (mouse, also: biotin label); assay: peptide ELISA, 0.08 ug/well
T21 peptide: EPTDSLDA[Cit]GHRPVDRR
Method: as §1, with “fibrinogen and vimentin” for “histone 2A”
as §4

huFibα XG = target: T22, huFibα XG (human, X at position 8 is citrulline; biotin label); assay: peptide ELISA, 0.08 ug/well
T22 peptide: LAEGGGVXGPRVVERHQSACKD
Method: as §1, with “fibrinogen and vimentin” for “histone 2A”
as §4

B1: RhmAb2.102 (antibody, human IgG1, lambda)
heavy: not shown
light: QSVLTQPPSMSAAPGQKVTISCSGSSSNIGNNYVSWYQQVPGTAPKLLIYDDNKRPSGIPGRFSGSKSATSATLGITGLQAGDEADYYCGSWDDNLSVVLFGGGTKLTVLGQPKAAPSVTLFPPSSEELQANKATLVCLISDFYPGAVTVAWKADSSPVKAGVETTTPSKQSNNKYAASSYLSLTPEQWKSHRSYSCQVTHEGSTVEKTVAPTECS
notes: Human IgG1 lambda; also called Rhm2.102
OD [1]: 0.066 OD
OD [2]: 0.843 OD
OD [3]: 0.065 OD
OD [4]: 0.061 OD
OD [5]: 0.064 OD
OD [6]: 0.069 OD
OD [7]: 0.065 OD
OD [8]: 0.075 OD
OD [9]: 0.084 OD
OD [10]: 0.069 OD
OD [11]: 0.208 OD
OD [12]: 0.439 OD
OD [13]: 0.076 OD
OD [14]: 1.94 OD
OD [15]: 0.086 OD
OD [16]: 3.13 OD
OD (CFC-1): 3.38 OD
OD [17]: 0.115 OD
OD [18]: 3.18 OD
OD (msFibα XH): 0.076 OD
OD (huFibα XH): 0.08 OD
OD (msFibβ XG): 0.515 OD
OD (huFibα XG): 0.186 OD
